# Data: patent EP0155825A2, “Novel choline derivatives” (NITTO BOSEKI CO., LTD., priority 1984, dated 1985)
# B1: cholinesterase (enzyme code number of 3.1.1.8; referred to briefly as Ch-E) (Homo sapiens) (protein)
# chain: EDDIIIATKNGKVRGMNLTVFGGTVTAFLGIPYAQPPLGRLRFKKPQSLTKWSDIWNATKYANSCCQNIDQSFPGFHGSEMWNPNTDLSEDCLYLNVWIPAPKPKNATVLIWIYGGGFQTGTSSLHVYDGKFLARVERVIVVSMNYRVGALGFLALPGNPEAPGNMGLFDQQLALQWVQKNIAAFGGNPKSVTLFGESAGAASVSLHLLSPGSHSLFTRAILQSGSFNAPWAVTSLYEARNRTLNLAKLTGCSRENETEIIKCLRNKDPQEILLNEAFVVPYGTPLSVNFGPTVDGDFLTDMPDILLELGQFKKTQILVGVNKDEGTAFLVYGAPGFSKDNNSIITRKEFQEGLKIFFPGVSEFGKESILFHYTDWVDDQRPENYREALGDVVGDYNFICPALEFTKKFSEWGNNAFFYYFEHRSSKLPWPEWMGVMHGYEIEFVFGLPLERRDNYTKAEEILSRSIVKRWANFAKYGNPNETQNNSTSWPVFKSTEQKYLTLNTESTRIMTKLRAQQCRFWTSFFPKVLEMTGNIDEAEWEWKAGFHRWNNYMMDWKNQFNDYTSKKESCVGL
# notes: admixing the preheated solution with 200 µℓ of a serum; tissue Nissui Seiyaku Co. consera I; host or cells: serum (commercial control serum)
# Substrate: C[N+](C)(C)CCOC(=O)c1ccc(O)c(O)c1
# Assay: Km of the substrate for cholinesterase (UV method, absorbance decrease at 340 nm)
# Format: biochemical
# Details: other: 50 mM TRIS-maleate buffer (pH 8.20); compound as substrate of Ch-E; pH 8.2; 37.0 °C
# Source text: Fig. 1 represents UV spectra of 3,4-dihydroxybenzoylcholine iodide (hereinafter referred to briefly as DHBCI) and 3,4-dihydroxybenzoic acid. When DHBCI is hydrolyzed by the action of Ch-E, there are formed choline and 3,4-dihydroxybenzoic acid. […] Therefore, when DHBCI, a novel compound according to the present invention, is used as substrate in the assay of enzymatic activity of Ch-E and the reaction is traced through the absorbance at a wavelength of 340-360 nm, it is possible to follow precisely the decrease in substrate DHBCI. In the previously mentioned method of W. Kalow, since the measurement is done at a shorter wavelength of 240 nm, the initial absorption is interfered with by the blood constituents, whereas at a wavelength of 340-360 nm, the interference is very little and the conditions of reaction can be set up more easily. […]
# The assay was performed by adjusting the substrate concentration to 0.25 mM with a 50 mM TRIS-maleate buffer (pH 8.20), preheating for about 5 minutes 2.0 mt of-the adjusted solution to 37°C, admixing the preheated solution with 200 µℓ of a serum, and immediately measuring the absorbance decrease at 340 nm of the mixture at 37°C. […] The activity of Ch-E was calculated from the following equation: [formula] • ^* ΔO.D.: Absorbance change per minute at a wavelength of 340 nm. • ^** Molar absorbance at 340 nm: 2960
protein,measurement,value
B1,Km,26 µM
